Stoichiometry N data for 3 substances are collected here from article doi:10.1101/2025.03.24.644915.

Test [1] concerns the target VP6 protein, rotavirus SA11 clone C4111 (simian rotavirus A strain SA11 (clone C4111)). Kind of test: cryo-EM structure; purified TR-TLP (made in the presence of trypsin); single particle analysis with icosahedral symmetry, 3.48 Å; spike by localized reconstruction, 3D classification, optical flow (EnRICH) and LocSpiral.
Test [2] has the same target. In words: cryo-EM structure; purified NTR-TLP (made without trypsin, with leupeptin); single particle analysis with icosahedral symmetry, 3.40 Å; spike by localized reconstruction, 3D classification, optical flow (EnRICH) and LocSpiral.
In test [3] the target is VP7 glycoprotein, rotavirus SA11 clone C4111 (simian rotavirus A strain SA11 (clone C4111)). Kind of test: cryo-EM structure; purified TR-TLP (made in the presence of trypsin); single particle analysis with icosahedral symmetry, 3.48 Å; spike by localized reconstruction, 3D classification, optical flow (EnRICH) and LocSpiral.
For test [4] the target is unchanged. Kind of test: cryo-EM structure; purified NTR-TLP (made without trypsin, with leupeptin); single particle analysis with icosahedral symmetry, 3.40 Å; spike by localized reconstruction, 3D classification, optical flow (EnRICH) and LocSpiral.
The target of test [5] is VP4 spike protein, uncleaved (NTR spike), simian rotavirus A strain SA11 clone C4111 (simian rotavirus A strain SA11 (clone C4111)). Described as above.

On to “VP6 protein, rotavirus SA11 clone C4111 (natural protein)”, for which the stoichiometry N in test [1] and in test [2] was 3 throughout. As to “VP7 glycoprotein, rotavirus SA11 clone C4111 (natural protein)”, the stoichiometry N in test [3] and in test [4] was 3 throughout. In test [5], “VP4 spike protein, uncleaved (NTR spike), simian rotavirus A strain SA11 clone C4111 (natural protein)” displayed a stoichiometry N of 3.
